We go through 1 molecule from US20190085033A1 (published 2019).

The test deals with BG505-gp120. As to the kind of experiment: SPR. For orientation: SPR reads the build-up and loss of mass on a sensor chip optically.

B1: 4025 (antibody, V domains shown)
VH: EVQLVQSGAEVKKPGESLKISCKASGYSFSSYWIAWVRQMPGKGLEWMGFIYPADSDTRYSPSFQGQGTISADKSISTAYLQWSSLKASDTAMYYCAILGFWGANRGGGGMDVWGQGTTVIVSS
VL: SYELTQPPSVSVSPGQTARITCSGDALPEKYAYWYQQKSGQAPVLIIYEDSKRPSGIPERFSGSRSGTMATLTISGAQVDDEADYYCYSTNSGGTFFVFGTGTKVTVLG
On to B1, for which the Kd was found to be 75 nM.

By Kd is commonly meant the equilibrium constant for the complex coming apart. The low end stands for higher affinity, the high end for lower affinity.
